# Laboratory results from US12138304.
# Key:
# [1] = molecular target: BG505 Vt8 gp160 (cell surface expressed trimer) (HIV-1 (clade A BG505)); assay: flow cytometry, 293F cells expressing gp160; mean of 3 experiments ± SD
# [2] = molecular target: BG505 F14 gp160 (cell surface expressed trimer) (HIV-1 (clade A BG505)); assay: as above
# [3] = molecular target: BG505 DS gp160 (cell surface expressed trimer) (HIV-1 (clade A BG505)); assay: as above
# [4] = molecular target: BG505 F14/Vt8 gp160 (cell surface expressed trimer) (HIV-1 (clade A BG505)); assay: as above
# [5] = molecular target: BG505 gp160 (cell surface expressed trimer) (HIV-1 (clade A BG505)); assay: as above
# [6] = molecular target: BG505 Vt8 gp160 (cell surface expressed trimer) (HIV-1 (clade A BG505)); assay: flow cytometry, 293F cells expressing gp160, antibody 10 ug/mL
# [7] = molecular target: BG505 F14 gp160 (cell surface expressed trimer) (HIV-1 (clade A BG505)); assay: as above
# [8] = molecular target: BG505 DS gp160 (cell surface expressed trimer) (HIV-1 (clade A BG505)); assay: as above
# [9] = molecular target: BG505 F14/Vt8 gp160 (cell surface expressed trimer) (HIV-1 (clade A BG505)); assay: as above
# [10] = molecular target: BG505 gp160 (cell surface expressed trimer) (HIV-1 (clade A BG505)); assay: as above
# [11] = molecular target: BG505 F14/Vt8 SOSIP (HIV-1 (clade A BG505)); assay: BLI dose response, antibody captured on anti-human Fc tips, SOSIP in solution
# [12] = molecular target: BG505 Vt8 SOSIP (HIV-1 (clade A BG505)); assay: as above
# [13] = molecular target: BG505 F14 SOSIP (HIV-1 (clade A BG505)); assay: BLI dose response, one site specific binding fit to the average of two experiments
# [14] = molecular target: BG505 SOSIP (HIV-1 (clade A BG505)); assay: as above
# [15] = molecular target: BG505 F14/Vt8 SOSIP (HIV-1 (clade A BG505)); assay: as above
# [16] = molecular target: BG505 Vt8 SOSIP (HIV-1 (clade A BG505)); assay: as above
# soluble CD4 (sCD4) = soluble CD4 (sCD4) (UniProt P01730); assay: SPR, apparent affinity for sCD4
Substance,percentage of cells binding [1],percentage of cells binding [2],percentage of cells binding [3],percentage of cells binding [4],percentage of cells binding [5],Kd [13],Kd [14],Kd [15],Kd [16],also measured
N6 (antibody),44.4%,53.9%,41%,40.3%,45.3%,–,–,–,–,MFI [6]: 378 MFI; MFI [7]: 568 MFI; MFI [8]: 338 MFI; MFI [9]: 341 MFI; MFI [10]: 457 MFI
CH01 (antibody),30.2%,37.7%,20.8%,22.1%,32.8%,–,–,–,–,–
VRC01 (antibody),–,–,–,–,–,566 nM,612 nM,314 nM,269 nM,fold enhancement of affinity relative to BG505 SOSIP [11]: 2 fold; fold enhancement of affinity relative to BG505 SOSIP [12]: 2 fold
PGT121 (antibody),–,–,–,–,–,219 nM,222 nM,262 nM,260 nM,–
PGT125 (antibody),43.2%,54.7%,38.2%,37.9%,47.1%,–,–,–,–,–
PGT145 (antibody),38.2%,48.8%,35.4%,34.8%,46%,76.5 nM,64.2 nM,80.2 nM,68 nM,–
BG505 SOSIP,–,–,–,–,–,–,–,–,–,Kd (soluble CD4 (sCD4)): 67.9 nM
VRC26 (antibody),–,–,–,–,–,50.2 nM,67.6 nM,50.6 nM,60.4 nM,–
PG9 (antibody),–,–,–,–,–,45.9 nM,444 nM,337 nM,335 nM,–
PGT151 (antibody),–,–,–,–,–,23.3 nM,26.9 nM,24 nM,24 nM,–
